Experimental data from patent US20140045742A1.
Where no end group is shown, it is not given here.

Experiments:
[1] = target: alpha1-antitrypsin, P01009; assay: in vitro association of the serpin-finger polypeptide with alpha1-antitrypsin
[2] = target: HIV HR1 peptide (heptad repeat 1) (HIV); assay: SPR (BIAcore), HIV HR1 peptide immobilized on CM5 chip

alpha1-antitrypsin, P01009, sequence (P01009 25-418 limits assumed): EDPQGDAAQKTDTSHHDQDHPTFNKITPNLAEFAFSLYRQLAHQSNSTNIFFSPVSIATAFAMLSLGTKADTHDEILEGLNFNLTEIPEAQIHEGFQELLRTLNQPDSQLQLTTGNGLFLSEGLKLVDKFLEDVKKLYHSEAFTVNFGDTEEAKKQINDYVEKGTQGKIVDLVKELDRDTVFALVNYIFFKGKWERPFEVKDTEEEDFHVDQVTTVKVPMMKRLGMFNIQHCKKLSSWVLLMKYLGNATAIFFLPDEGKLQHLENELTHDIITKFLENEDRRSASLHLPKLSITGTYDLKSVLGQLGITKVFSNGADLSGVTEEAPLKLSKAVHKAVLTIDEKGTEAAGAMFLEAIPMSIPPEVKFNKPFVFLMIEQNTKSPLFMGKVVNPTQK

Binder	in vitro association T1/2 [1]	Ka [2]	Kd [2]	koff [2]	kon [2]
Ac-TAVVIA [Ac-TAVVIA]	16 h				
Ac-TDAAGATAVVIA	16 h				
Ac-SEAAASMFLEAI	4 h				
fusion polypeptide FP-2 (protein) GRGTEAAGAMFLEAIPMSTTWMEWDKEINNYTSLIHSLIEESQNQQEKNEQELL		1.08e+10 M⁻¹	0.0924 nM	0.000119 s⁻¹	1.29e+06 M⁻¹ s⁻¹
Ac-SEAAASTAVVIA	1.4 h				
Ac-TEAAGAMFLEAIVM	10 h				
Ac-TEAAGAMFFEAIPM	10 h				
fusion polypeptide FP-1 (protein) GRTEAAGAMFLEAIPMSGGGGSGGGGSGGGGTWQEWEQKITALLEQAQIQQEKNEYELQKLDKWASLWEWF		6.29e+08 M⁻¹	1.59 nM	0.000361 s⁻¹	227000 M⁻¹ s⁻¹
Ac-SDAAGAMFLEAI	16 h				
fusion polypeptide FP-3 (protein) GKSGTEAAGAMFLEAIPMSGGGGSGGGGSGGGGTTWEAWDRAIAEYAARIEALIRAAQEQQERNEAALREL		3.22e+10 M⁻¹	0.031 nM	3.07e-05 s⁻¹	991000 M⁻¹ s⁻¹
Ac-TEAAGATAVVIA	9.5 h				
